Consider 25 sequences from the supplement of paper PMC9233669.

For data set [1], the system named is biotinyl-Phe-oxazolone. The data set can be described thus: self-aminoacylation, catalytic enhancement (BFO) (fold over background); higher = more active; k-Seq, kA / k0A0; sequences stand for … in GGGAAUGGAUCCACAUCUACGAAUUC…UUCACUGCAGACUUGACGAAGCUG
The essentials: (§1)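 The uncatalyzed rate is the low-activity peak of a bimodal Gaussian fit, and catalytic enhancement is median kA divided by it. The kA values came from pseudo-first-order fits, with 1000 bootstraps, of per-sequence fraction reacted measured by streptavidin capture, triplicate qPCR and Illumina sequencing. Mutagenized RNA pools with a 21-nt variable region (0.43 μM) were reacted with each biotinyl-aminoacyl-oxazolone at 2–1250 μM in 50 μL HEPES/NaCl/KCl/MgCl2/CaCl2 buffer with 5% acetonitrile, pH 6.9–7.0, for 90 minutes at room temperature.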

Data set [2] deals with biotinyl-Met-oxazolone. The data set can be described thus: self-aminoacylation, catalytic enhancement (BMO) (fold over background); higher = more active; k-Seq, kA / k0A0; sequences stand for … in GGGAAUGGAUCCACAUCUACGAAUUC…UUCACUGCAGACUUGACGAAGCUG
The essentials: as §1

Data set [3] concerns biotinyl-Leu-oxazolone. The data set can be described thus: self-aminoacylation, catalytic enhancement (BLO) (fold over background); higher = more active; k-Seq, kA / k0A0; sequences stand for … in GGGAAUGGAUCCACAUCUACGAAUUC…UUCACUGCAGACUUGACGAAGCUG
The essentials:
as §1

Data set [4] has as its system biotinyl-Val-oxazolone. The data set can be described thus: self-aminoacylation, catalytic enhancement (BVO) (fold over background); higher = more active; k-Seq, kA / k0A0; sequences stand for … in GGGAAUGGAUCCACAUCUACGAAUUC…UUCACUGCAGACUUGACGAAGCUG
The method in brief: as §1

Data set [5] concerns biotinyl-Trp-oxazolone. The data set can be described thus: self-aminoacylation, catalytic enhancement (BWO) (fold over background); higher = more active; k-Seq, kA / k0A0; sequences stand for … in GGGAAUGGAUCCACAUCUACGAAUUC…UUCACUGCAGACUUGACGAAGCUG
The method in brief: as §1

Data set [6] relates to biotinyl-Ile-oxazolone. Description: self-aminoacylation, catalytic enhancement (BIO) (fold over background); higher = more active; k-Seq, kA / k0A0; sequences stand for … in GGGAAUGGAUCCACAUCUACGAAUUC…UUCACUGCAGACUUGACGAAGCUG
The essentials:
as §1

Fewer inactive variants are shown than the library holds.

For “AUUCAGCUAGGUCAUGGGGUG [Fam2.2 aminoacylation ribozyme variant]”, the self-aminoacylation turned out to be 17.8 in data set [1]; 3.03 in data set [2]; 2.94 in data set [3]; 2.98 in data set [4]; 3.72 in data set [5]; 2.74 in data set [6].
On to “AUUCAGCUAGGUCCUCGGGUG [Fam2.2 aminoacylation ribozyme variant]”, for which the self-aminoacylation in data set [1] amounted to 55.4; in data set [2] it was 6.2; in data set [3], 9.02; in data set [4], 4.46; in data set [5], 6.56; in data set [6] it was 4.67.
For “AUUCAGCUAGGUUAUCGGGUG [Fam2.2 aminoacylation ribozyme variant]”, the self-aminoacylation was 60.4 in data set [1]; 7.59 in data set [2]; 9.36 in data set [3]; 5.16 in data set [4]; 8.86 in data set [5]; 5.01 in data set [6].
On to “AUUCAGCUAGUUCAUCGGGUG [Fam2.2 aminoacylation ribozyme variant]”, for which the self-aminoacylation in data set [1] was 52.3; in data set [2] it was 7.01; in data set [3], 9.16; in data set [4] it was 4.95; in data set [5], 7.26; in data set [6] it was 5.34.
For “AUUCAGGUAGGUCAUCGGGUG [Fam2.2 aminoacylation ribozyme variant]”, the self-aminoacylation in data set [1] came out at 30.7; in data set [2], 4.59; in data set [3], 5.83; in data set [4] it was 4.23; in data set [5] it was 5.12; in data set [6], 3.68.
As for “AUUCAUAUAGGUCAUCGGGUG [Fam2.2 aminoacylation ribozyme variant]”, the self-aminoacylation came to 34.2 in data set [1]; 4.9 in data set [2]; 6.04 in data set [3]; 3.28 in data set [4]; 5.78 in data set [5]; 3.42 in data set [6].
On to “AUUCAUCCAGGUCAUCGGGUG [Fam2.2 aminoacylation ribozyme variant]”, for which the self-aminoacylation in data set [1] was found to be 47.8; in data set [2], 7.87; in data set [3] it was 9.76; in data set [4], 4.75; in data set [5], 6.96; in data set [6] it was 4.96.
In the case of “AUUCAUCUAGGUCAACGGGUG [Fam2.2 aminoacylation ribozyme variant]”, the self-aminoacylation in data set [1] amounted to 29.6; in data set [2], 4.08; in data set [3], 5.32; in data set [4], 2.61; in data set [5], 3.23; in data set [6], 2.6.
Take “AUUCAUCUAGGUCAUCGUGUG [Fam2.2 aminoacylation ribozyme variant]”: the self-aminoacylation amounted to 4.8 in data set [1]; 1.16 in data set [2]; 1.23 in data set [3]; 0.915 in data set [4]; 0.882 in data set [5]; 1.05 in data set [6].
Turning to “AUUCAUCUAGGUCAUUGGGUG [Fam2.2 aminoacylation ribozyme variant]”, the self-aminoacylation is 26.7 in data set [1]; 4.21 in data set [2]; 4.98 in data set [3]; 2.77 in data set [4]; 4.24 in data set [5]; 2.67 in data set [6].
With “AUUCAUCUAGGUUAUCGGGUG [Fam2.2 aminoacylation ribozyme variant]”, the self-aminoacylation in data set [1] was found to be 28.8; in data set [2], 3.02; in data set [3], 3.86; in data set [4] it was 2.44; in data set [5] it was 3.36; in data set [6] it was 2.37.
In the case of “AUUCAUCUGGGUCAUCGGGUG [Fam2.2 aminoacylation ribozyme variant]”, the self-aminoacylation was found to be 53.2 in data set [1]; 7.57 in data set [2]; 10.3 in data set [3]; 4.92 in data set [4]; 7.66 in data set [5]; 5.22 in data set [6].
For “AUUCAUCUUGGUCAUCGGGUG [Fam2.2 aminoacylation ribozyme variant]”, the self-aminoacylation in data set [1] is 50.1; in data set [2], 7.46; in data set [3], 9.58; in data set [4] it was 4.56; in data set [5] it was 7.39; in data set [6] it was 4.97.
As for “AUUCAUGUAGGUCAUCGGGUG [Fam2.2 aminoacylation ribozyme variant]”, the self-aminoacylation in data set [1] came out at 33.9; in data set [2] it was 5.45; in data set [3] it was 6.54; in data set [4] it was 3.43; in data set [5] it was 5.09; in data set [6], 3.
For the sequence “AUUCCCAUAGGUCAUCGGGUG [Fam2.2 aminoacylation ribozyme variant]”, the self-aminoacylation is 185 in data set [1]; 23.9 in data set [2]; 32.7 in data set [3]; 13.4 in data set [4]; 22 in data set [5]; 15.6 in data set [6].
For the sequence “AUUCCCCUAAGUCAUCGGGUG [Fam2.2 aminoacylation ribozyme variant]”, the self-aminoacylation stood at 498 in data set [1]; 59.1 in data set [2]; 85.8 in data set [3]; 37.9 in data set [4]; 62.2 in data set [5]; 38.6 in data set [6].
Turning to “AUUCCCCUACGUCAUCGGGUG [Fam2.2 aminoacylation ribozyme variant]”, the self-aminoacylation came to 127 in data set [1]; 16 in data set [2]; 20.9 in data set [3]; 11 in data set [4]; 16 in data set [5]; 10.9 in data set [6].
For “AUUCCCCUAGGUAAUCGGGUG [Fam2.2 aminoacylation ribozyme variant]”, the self-aminoacylation was found to be 90.8 in data set [1]; 10.7 in data set [2]; 16.3 in data set [3]; 6.58 in data set [4]; 11.6 in data set [5]; 7.5 in data set [6].
With “AUUCCCCUAGGUCAUCGAGUG [Fam2.2 aminoacylation ribozyme variant]”, the self-aminoacylation in data set [1] was 66.1; in data set [2] it was 11; in data set [3] it was 15; in data set [4], 7.52; in data set [5] it was 12.6; in data set [6], 7.79.
“AUUCCCCUAGGUCAUCGGCUG [Fam2.2 aminoacylation ribozyme variant]”: the self-aminoacylation in data set [1] was 30.9; in data set [2], 6.91; in data set [3], 7.58; in data set [4], 7.07; in data set [5] it was 6.44; in data set [6], 8.03.
Consider “AUUCCCCUAGGUCAUCGGGUU [Fam2.2 aminoacylation ribozyme variant]”, for which the self-aminoacylation in data set [1] came out at 36.7; in data set [2] it was 5.77; in data set [3], 8.02; in data set [4], 6.74; in data set [5] it was 7.29; in data set [6], 6.34.
Turning to “AUUCCCCUAGGUCAUCGGUUG [Fam2.2 aminoacylation ribozyme variant]”, the self-aminoacylation in data set [1] came out at 11.7; in data set [2], 3.19; in data set [3] it was 3.94; in data set [4] it was 3.38; in data set [5], 2.16; in data set [6] it was 3.4.
On to “AUUCCCCUAGGUCAUCGUGUG [Fam2.2 aminoacylation ribozyme variant]”, for which the self-aminoacylation in data set [1] was 20.7; in data set [2] it was 3.02; in data set [3] it was 4.37; in data set [4], 4.25; in data set [5], 4.05; in data set [6], 3.28.
For “AUUCCCCUAGGUUAUCGGGUG [Fam2.2 aminoacylation ribozyme variant]”, the self-aminoacylation in data set [1] was found to be 187; in data set [2], 20; in data set [3], 27.6; in data set [4], 13.3; in data set [5], 20; in data set [6], 12.9.
On to “AUUCCCCUAGUCAUCGAGUGA [Fam2.1 aminoacylation ribozyme variant]”, for which the self-aminoacylation in data set [1] was determined as 66.1; in data set [2], 11.5; in data set [3] it was 11.6; in data set [4], 7.18; in data set [5], 15.3; in data set [6] it was 6.5.
